From the RNAGym collection of RNA variant scans (doi:10.1073/pnas.2313332121)

B1: TPR t1 (parent)
chain: GACCAAUCUGCCCUCAGAGCUCGAGAACAUCUUCGGAUGCAGAGGAGGCAGGCUUCGGUGGCGCGAUAGCGCCAACGUCCUCAACCUCCAAUGCAUCCCACCACAUGAUGAUGCCUGAAGAGCCUUGGUUUUUUG

Variants of: B1
Assay: polymerase ribozyme fitness, log enrichment relative to wild type (log ratio); higher = more active; in vitro selection for triplet polymerase activity
How it was run: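 To select mutant libraries of each subunit of a heterodimeric triplet polymerase ribozyme, built by PCR and transcribed, each was annealed with a biotinylated primer, partner subunit and triplets, then incubated frozen at −7 °C. Extended constructs were gel-excised, captured on streptavidin beads and amplified by RT-PCR, in one round carried out in triplicate. Illumina sequencing of input and output libraries kept genotypes with ≥10 input reads and ≥1 read per output. Fitness is the base-2 logarithm of genotype enrichment relative to wild-type enrichment, from inverse-variance-weighted replicate averages.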

| Variant | polymerase ribozyme fitness (log ratio) |
| --- | --- |
| U54A A68G G71U C80G C102G G113U U125A | -6.12 |
| A6C C70U U129A | -2.82 |
| A6G G69A C115A G120A | -1.22 |
| C56A G61A A111G U125C | -2.99 |
| A27C C124A | -0.901 |
| C40U G45C C49U G63U A83U | -5.92 |
| G36U C72G C124U | -0.0425 |
| C13A G63U | -3.09 |
| A24G C88G C123A U129A | -4.43 |
| U78C C97A | -4.81 |
| G61C C79U C101G | -1.64 |
| U9C C56G | 0.559 |
| G47A U54C C97G | -5.9 |
| C49G C76U U87C | -1.3 |
| U9G C123U | 0.831 |
| C8G C56G C89A A90C G107C G117C | -5.56 |
| U81A U112A | 0.19 |
| A18U C114U | -3.74 |
| A41U G61U | -0.703 |
| G10U C53G U78A | -2.99 |
| C62U C97G U132A | -3.9 |

| Variant | polymerase ribozyme fitness (log ratio) |
| --- | --- |
| G39U G45U C73G | -2.79 |
| C12A U14A U87A C88U | -4.28 |
| U30C C62U U78C | -3.36 |
| C53U G93A | -0.887 |
| C4G A18C C22U C72G G93U U109C G117C | -5.69 |
| C62U U78C U106C | -0.597 |
| C94A | -0.804 |
| C53G | -0.355 |
| U9G C11A G52A G57C U116G A121G | 0.971 |
| U112A U130C | 1.38 |
| C53U C80A | -4.94 |
| C12A G19U C73A G77C | -5.03 |
| A41C C56G C85U C102U | -5.51 |
| C49G U55C C76U A95C C98U | -2.41 |
| A43U C72U | -1.17 |
| C8G C12A U109A A119C A121G | -5.47 |
| G61U C102U | -1.65 |
| A37C G71C | -1.27 |
| G48A C56U C82U | -0.312 |
| G36A G69A C73G G120A | -5.29 |
| A41U C72G G117C | -5.06 |

| Variant | polymerase ribozyme fitness (log ratio) |
| --- | --- |
| A27G A41U G48A C88A | -5.84 |
| C3G A37U C62A A95U G120C | -3.27 |
| C73U A90G A121C | 2.05 |
| G47C A91C G113C | -2.97 |
| A29U U126C | -2.33 |
| A5C G48A | -1.85 |
| C40U G45U G63A | -2.6 |
| C11A U14G G63A G71A A83G A91C C114U | -5.74 |
| C12G U33G C70U U87G A118U U125A | -5.53 |
| A6G C11G G17C G36C C97U | -5.22 |
| C56G C86U U112A A118G A119G | 1.32 |
| G45A C70G C85A | -4.9 |
| C4A G61U | -1.15 |
| A46U G77C C115U G122A U130C | -4.76 |
| U9C G60U U109G C114G | -3.95 |
| C8G C34G G39C G120U | -4.99 |
| U9A C56A C82A C85A | -0.979 |
| C3U C4A C53G C88U A90C C123A U130C | -0.356 |
| C12A U133G | -1.24 |
| G51U C85U | -4.37 |
| A27C U54C | -2.56 |

| Variant | polymerase ribozyme fitness (log ratio) |
| --- | --- |
| A5U A43G C102A U116C | -5.9 |
| A43C G44C | -1.05 |
| A27U A90U | -5.37 |
| C86A A95G | -0.915 |
| G57A C82U A105G G120U | -4.95 |
| C56G C72U C88U U106A U133A | -1.24 |
| A2G A18C A91C | -2.93 |
| G19A C49U G113U | -2.65 |
| A46G G47A G52U | -2.7 |
| C8U C70U | -0.398 |
| C8A C70A | -0.98 |
| A6U C11G | 0.392 |
| G23C A26G C124U | -5.18 |
| G48C C62A G65U U78C U130C | -4.95 |
| A37U C72U U96A | -0.172 |
| C64A U78C U81G G120A | -6.42 |
| A29G U32A U55C | -5.1 |
| C12A G17U G42U C53G U59C C101A | -5.66 |
| G71U U92A G93U | -3.61 |
| C70U C80U A90C C98U | -5.92 |
| G71C C85U | -2.23 |
